Usually stoichiometry N stands for the number of molecules, sites or subunits per partner or assembly.

Test [1] deals with Acinetobacter baumannii 118362 Family 2A encapsulin shell protein (J517_0527) (Acinetobacter baumannii 118362). Briefly: cryo-EM structure.
The target in test [2] is degraded free cysteine desulfurase that has lost the N-terminal CLD (Acinetobacter baumannii 118362). Briefly: SEC. In general terms: SEC sorts molecules by how far they enter the pores of the column.
Test [3] concerns the target free Acinetobacter baumannii 118362 cysteine desulfurase (construct RB30, C-terminally His6-tagged, tag removed) (Acinetobacter baumannii 118362). Briefly: SEC.

For “Acinetobacter baumannii 118362 Family 2A encapsulin shell protein (J517_0527) (natural protein)”, the stoichiometry N in test [1] is 60 subunits. In test [1], “Acinetobacter baumannii 118362 cysteine desulfurase (J517_0528), co-expressed from the four-gene operon (enzyme)” yielded a stoichiometry N (CD cargo proteins per encapsulin shell) of less than 24.

Turning to “degraded free cysteine desulfurase that has lost the N-terminal CLD (domain or fragment)”, the stoichiometry N in test [2] was 2. In test [3], “free Acinetobacter baumannii 118362 cysteine desulfurase (construct RB30, C-terminally His6-tagged, tag removed) (enzyme)” returned a stoichiometry N of 2.

(Values after article doi:10.1101/2023.06.21.545984.)
